Results reported in patent US11622990.

Molecular target: Recombinant human glucose-regulated protein GRP78 (human) (UniProt P11021)
Test: SPR (Biacore T200), recombinant human GRP78 coupled to a CM5 chip, peptide injected at 0.3125-20 µM

Chain of Recombinant human glucose-regulated protein GRP78 (human) (P11021 19-654 limits assumed): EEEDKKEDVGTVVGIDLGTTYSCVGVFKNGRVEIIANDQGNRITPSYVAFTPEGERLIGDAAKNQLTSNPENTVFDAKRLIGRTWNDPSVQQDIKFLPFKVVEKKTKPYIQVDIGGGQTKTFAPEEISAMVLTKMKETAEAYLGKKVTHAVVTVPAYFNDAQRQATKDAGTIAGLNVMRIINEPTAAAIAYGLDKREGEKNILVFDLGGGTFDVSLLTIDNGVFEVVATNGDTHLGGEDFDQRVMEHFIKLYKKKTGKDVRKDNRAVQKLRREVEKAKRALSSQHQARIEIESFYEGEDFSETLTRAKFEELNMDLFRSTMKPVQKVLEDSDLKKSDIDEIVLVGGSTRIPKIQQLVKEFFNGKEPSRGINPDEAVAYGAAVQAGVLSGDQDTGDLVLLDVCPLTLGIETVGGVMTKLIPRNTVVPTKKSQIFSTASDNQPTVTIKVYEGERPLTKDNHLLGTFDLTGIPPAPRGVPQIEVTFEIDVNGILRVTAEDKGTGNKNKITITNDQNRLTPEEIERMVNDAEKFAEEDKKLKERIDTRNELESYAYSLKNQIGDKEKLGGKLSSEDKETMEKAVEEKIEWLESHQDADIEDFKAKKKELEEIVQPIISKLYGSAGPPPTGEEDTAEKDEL

- Kd: 5.22 µM
- koff: 0.0283 s⁻¹
Binder: SNTRVAP (all seven residues are D-configuration amino acids (^DS^DN^DT^DR^DV^DA^DP)) [SVAP (D-configuration peptide DS-DN-DT-DR-DV-DA-DP)]
